Source: IntAct's records for PubMed 22184064

B1: Cyclin-Y (Homo sapiens), Q8ND76-1 (parent)
chain: MGNTTSCCVSSSPKLRRNAHSRLESYRPDTDLSREDTGCNLQHISDRENIDDLNMEFNPSDHPRASTIFLSKSQTDVREKRKSLFINHHPPGQIARKYSSCSTIFLDDSTVSQPNLKYTIKCVALAIYYHIKNRDPDGRMLLDIFDENLHPLSKSEVPPDYDKHNPEQKQIYRFVRTLFSAAQLTAECAIVTLVYLERLLTYAEIDICPANWKRIVLGAILLASKVWDDQAVWNVDYCQILKDITVEDMNELERQFLELLQFNINVPSSVYAKYYFDLRSLAEANNLSFPLEPLSRERAHKLEAISRLCEDKYKDLRRSARKRSASADNLTLPRWSPAIIS

Variants of: B1
Settings: with cdk16_human CDK16, Q00536
Sequence of cdk16_human CDK16, Q00536 (Q00536 whole entry): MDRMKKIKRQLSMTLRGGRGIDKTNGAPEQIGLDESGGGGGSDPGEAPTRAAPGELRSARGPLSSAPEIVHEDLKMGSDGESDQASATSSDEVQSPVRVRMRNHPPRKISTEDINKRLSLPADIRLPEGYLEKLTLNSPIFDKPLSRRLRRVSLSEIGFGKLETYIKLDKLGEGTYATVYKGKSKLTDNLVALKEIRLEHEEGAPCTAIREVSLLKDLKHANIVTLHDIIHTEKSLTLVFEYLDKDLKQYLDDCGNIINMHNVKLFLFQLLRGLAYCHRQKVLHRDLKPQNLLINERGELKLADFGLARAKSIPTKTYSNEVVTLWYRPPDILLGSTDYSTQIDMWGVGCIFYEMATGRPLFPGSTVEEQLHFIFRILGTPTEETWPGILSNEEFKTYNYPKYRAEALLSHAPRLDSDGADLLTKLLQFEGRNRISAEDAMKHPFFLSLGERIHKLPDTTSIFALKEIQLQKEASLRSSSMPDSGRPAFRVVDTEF

effect of a mutation on the interaction	Variant
decreasing interaction strength	MGNTTSCCVSSSPKLRRNAHSRLESYRPDTDLSREDTGCNLQHISDRENIDDLNMEFNPSDHPRASTIFLSKSQTDVREKRKSLFINHHPPGQIARKYSSCSTIFLDDSTVSQPNLKYTIKCVALAIYYHIKNRDPDGRMLLDIFDENLHPLSKSEVPPDYDKHNPEQKQIYRFVRTLFSAAQLTAECAIVTLVYLERLLTYAEIDICPANWKRIVLGAILAAAKVWDDQAVWNVDYCQILKDITVEDMNELERQFLELLQFNINVPSSVYAKYYFDLRSLAEANNLSFPLEPLSRERAHKLEAISRLCEDKYKDLRRSARKRSASADNLTLPRWSPAIIS [L222A;S224A]

Variants of: B1
Settings: with cdk16_human CDK16, Q00536
Remark: another data set of the same source

effect of a mutation on the interaction	Variant
disrupting interaction strength	MGNTTSCCVSSSPKLRRNAHSRLESYRPDTDLSREDTGCNLQHISDRENIDDLNMEFNPSDHPRASTIFLSKSQTDVREKRKSLFINHHPPGQIARKYSSCSTIFLDDSTVSQPNLKYTIKCVALAIYYHIKNRDPDGRMLLDIFDENLHPLSKSEVPPDYDKHNPEQKQIYRFVRTLFSAAQLTAECAIVTLVYLERLLTYAEIDICPANWKRIVLGAILAAAKVWDDQAVWNVDYCQILKDITVEDMNELERQFLELLQFNINVPSSVYAKYYFDLRSLAEANNLSFPLEPLSRERAHKLEAISRLCEDKYKDLRRSARKRSASADNLTLPRWSPAIIS [L222A;S224A]
